Laboratory results taken from the supplement of paper PMC10567573.

B1: FADS1 (parent)
chain: LNFQIEHHLFPTMPRHNYHKVAPL

Variants of: B1
Assay: protein stability index of a GFP-peptide fusion (GPS, HEK-293T) (PSI 1-6); higher = more stable
Details: c terminus: a fixed tail appended
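Further: lentivirally expressed fusions sorted by FACS into six bins by GFP to DsRed ratio, PSI derived from sequencing read proportions per bin multiplied by bin number.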

Variant | protein stability index
LNFTIEHHLFPTMPRHNYHKVAPL [Q4T] | 2.74
LNFQIEHHLFPTMPRHNYHKVVPL [A22V] | 2.82
LNFQIEHHLFPTMPRHNYHKVSPL [A22S] | 2.91
LNFQIEHHLFPTMPLHNYHKVAPL [R15L] | 2.42
LNFQIEHHLFPTMPDHNYHKVAPL [R15D] | 1.98
LNFQIEHHLFPTMPKHNYHKVAPL [R15K] | 2.35
LNFQIEHHLFPTMPHHNYHKVAPL [R15H] | 1.84
LNFQIEHHLFPTLPRHNYHKVAPL [M13L] | 1.62
LNFQIEHHLFPTRPRHNYHKVAPL [M13R] | 1.4
LNFQIEHHLFPTCPRHNYHKVAPL [M13C] | 1.75
LNFQIEHHLFPTWPRHNYHKVAPL [M13W] | 2.66
LNFQIEHHLFPPMPRHNYHKVAPL [T12P] | 3.45
LNFQIEHHLFPFMPRHNYHKVAPL [T12F] | 2.79
LNFQIEHHLFPLMPRHNYHKVAPL [T12L] | 2.08
LNFQIEHHLFPIMPRHNYHKVAPL [T12I] | 2.5
LNFQIEHHLFPNMPRHNYHKVAPL [T12N] | 1.77
LNFQIEHVLFPTMPRHNYHKVAPL [H8V] | 1.5
LNFQIEHLLFPTMPRHNYHKVAPL [H8L] | 2.44
LNFQIEHHLDPTMPRHNYHKVAPL [F10D] | 1.74
LNFQIEHHLSPTMPRHNYHKVAPL [F10S] | 1.66
LNFQIEHHLFPTMPRHNYHKVAAL [P23A] | 2.81
LNFQIEHHLFPTMPRHNYHKVAPF [L24F] | 2.15
LNFQIEHHLFPTMPRHNYHKVAPT [L24T] | 1.56
LNFQIEHHLFPTMPRHNYHKVAPV [L24V] | 1.5

Variant | protein stability index
LNFQIEHHLFPTMPRHNYHKVAPA [L24A] | 1.71
LNFQIEHHLFPTMPRHNYHKVAPR [L24R] | 1.51
LNFQIEGHLFPTMPRHNYHKVAPL [H7G] | 1.55
LNFQIEQHLFPTMPRHNYHKVAPL [H7Q] | 2.45
LNFQIEAHLFPTMPRHNYHKVAPL [H7A] | 2.31
LNFQIEMHLFPTMPRHNYHKVAPL [H7M] | 2.96
LNFQIELHLFPTMPRHNYHKVAPL [H7L] | 3.47
LNFQIEHHLFPTMPRHNGHKVAPL [Y18G] | 1.81
LNFQIEHHLFPTMPRHNHHKVAPL [Y18H] | 1.6
LNFQIEHHLFPTMPRHNCHKVAPL [Y18C] | 2.42
LNFQIEHHLFPTMPRHNIHKVAPL [Y18I] | 2.23
LNFQIEHHLFPTMPRHNMHKVAPL [Y18M] | 2.18
LNFQIEHHLFPTMPRHNTHKVAPL [Y18T] | 2.27
LNFQIEHHLFPTMPRHNYWKVAPL [H19W] | 3.52
LNFQIEHHLFPTMPRHNYNKVAPL [H19N] | 2.27
LNFQIEHHLFPTMPRHNYLKVAPL [H19L] | 1.54
LNFQIEHHLFPTMPRHNYMKVAPL [H19M] | 3.8
LNFQIEHHLFPTMPRHNYPKVAPL [H19P] | 3.38
LNFQIEHHLFPTMPRHNYRKVAPL [H19R] | 1.88
LNQQIEHHLFPTMPRHNYHKVAPL [F3Q] | 2.17
LNWQIEHHLFPTMPRHNYHKVAPL [F3W] | 1.92
LNKQIEHHLFPTMPRHNYHKVAPL [F3K] | 1.88
LNDQIEHHLFPTMPRHNYHKVAPL [F3D] | 3.03
LNFQIEHHLFPTMPRRNYHKVAPL [H16R] | 2.13

Variant | protein stability index
LNFQIEHHLFPTMPRLNYHKVAPL [H16L] | 1.96
LNFQIEHHLFPTMPRNNYHKVAPL [H16N] | 2.2
LNFQIEHHLFPTMPRGNYHKVAPL [H16G] | 1.24
LNFQIHHHLFPTMPRHNYHKVAPL [E6H] | 2.31
LNFQILHHLFPTMPRHNYHKVAPL [E6L] | 2.27
LNFQIPHHLFPTMPRHNYHKVAPL [E6P] | 2.11
LNFQIKHHLFPTMPRHNYHKVAPL [E6K] | 2.21
LNFQIRHHLFPTMPRHNYHKVAPL [E6R] | 2.07
LNFQIEHHKFPTMPRHNYHKVAPL [L9K] | 1.36
LNFQIEHHLFPTMTRHNYHKVAPL [P14T] | 1.9
LNFQIEHHLFPTMQRHNYHKVAPL [P14Q] | 2.54
LNFQIEHHLFPTMMRHNYHKVAPL [P14M] | 2.44
LNFQIEHHLFPTMFRHNYHKVAPL [P14F] | 2.39
LNFQIEHHLFKTMPRHNYHKVAPL [P11K] | 2.46
LNFQIEHHLFITMPRHNYHKVAPL [P11I] | 2.19
LNFQIEHHLFWTMPRHNYHKVAPL [P11W] | 3.17
LNFQIEHHLFLTMPRHNYHKVAPL [P11L] | 2.53
LNFQIEHHLFPTMPRHWYHKVAPL [N17W] | 2.84
LNFQIEHHLFPTMPRHAYHKVAPL [N17A] | 1.98
LNFQIEHHLFPTMPRHPYHKVAPL [N17P] | 2.71
LNFQIEHHLFPTMPRHFYHKVAPL [N17F] | 2.83
LNFQIEHHLFPTMPRHHYHKVAPL [N17H] | 1.81
LNFQIEHHLFPTMPRHLYHKVAPL [N17L] | 3.08
LNFQIEHHLFPTMPRHMYHKVAPL [N17M] | 1.58

Variant | protein stability index
RNFQIEHHLFPTMPRHNYHKVAPL [L1R] | 2.48
KNFQIEHHLFPTMPRHNYHKVAPL [L1K] | 2.03
ANFQIEHHLFPTMPRHNYHKVAPL [L1A] | 1.91
FNFQIEHHLFPTMPRHNYHKVAPL [L1F] | 3.4
CNFQIEHHLFPTMPRHNYHKVAPL [L1C] | 2.11
NNFQIEHHLFPTMPRHNYHKVAPL [L1N] | 1.95
LRFQIEHHLFPTMPRHNYHKVAPL [N2R] | 2.09
LEFQIEHHLFPTMPRHNYHKVAPL [N2E] | 2.42
LLFQIEHHLFPTMPRHNYHKVAPL [N2L] | 3.82
LTFQIEHHLFPTMPRHNYHKVAPL [N2T] | 2.76
LIFQIEHHLFPTMPRHNYHKVAPL [N2I] | 3.16
LQFQIEHHLFPTMPRHNYHKVAPL [N2Q] | 1.91
LGFQIEHHLFPTMPRHNYHKVAPL [N2G] | 1.24
LNFQIEHHLFPTMPRHNYHPVAPL [K20P] | 2.71
LNFQIEHHLFPTMPRHNYHYVAPL [K20Y] | 3.23
LNFQIEHHLFPTMPRHNYHDVAPL [K20D] | 2.29
LNFQIEHHLFPTMPRHNYHEVAPL [K20E] | 1.94
LNFQIEHHLFPTMPRHNYHKRAPL [V21R] | 1.7
LNFQIEHHLFPTMPRHNYHKMAPL [V21M] | 2.5
LNFQIEHHLFPTMPRHNYHKPAPL [V21P] | 2.39
LNFQIEHHLFPTMPRHNYHKDAPL [V21D] | 2.41
LNFQIEHHLFPTMPRHNYHKGAPL [V21G] | 2.38
